Measured values from EP4669337B1 (ATOPIA THERAPEUTICS SA, dated 2025).

B1: polypeptide of SEQ ID NO:31 (a specific polypeptide of SEQ ID NO: 10, s1m1 family VacA-derived polypeptide) (other)
chain: AFFTTVIIPAIVGGIATGTAVGTVSGLLGWGLKQAEEANKTPDKPDKVWRIQAGKGFNEFPNKEYDLYKSLLSSKIDGGWDWGNAATHYWIKGGQWNKLEVDMKDAVGTYKLSGLRNFTGGDLDVNMQKATLRLGQFNGNSFTSYKDSADRTTRVDFNAKNILIDNFLEINNRVGSGAGRKASSTVLTLQASEGITSSKNAEISLYDGATLNLASNSVKLNGNVWMGRLQYVGAYLAPSYSTINTSKVTGEVNFNHLTVGDHNAAQAGIIASNKTHIGTLDLWQSAGLNIIAPPGGKDTVVNIDRINTKADGTIKVGGFKASLTTNAAHLNIGKGGVNLSNQASGRTLLVENLTGNITVDGPLRVNNQVGGYALAGSSANFEFKAGVDTKNGTATFNNDISLGRFVNLKVDAHTANFKGIDTGNGGFNTLDFSGVTNKVNINKLITASTNVAVKNFNINELIVKTNGVSVGEYTHFSEDIGSQSRINTVRLETGTRSIFSGGVKFKSGEKLVIDEFYYSPWNYFDARNIKNVEITRKFASSTPENPWGTSKLMFNNLTLGQNAVMDYSQFSNLTIQGDFINNQGTINYLVRGGKVATLNVGNAAAMMFNNDIDSATGFYKPLIKINSAQDLIKNTEHVLLKAKIIGYGNVSTGTNGISNVNLEEQFKERLALYNNNNRMDTCVVRNTDDIKACGMAIGNQSMVNNPDNYKYLIGKAWKNIGISKTANGSKISVYYLGNSTPTENGGNTTNLPTNTTNNARFASYA
notes: Engineered polypeptide derived from the H. pylori VacA s1m1 family, expressed in CHO or HEK cells and purified

Key:
[1] = target: B1; experiment: SPR (Biacore T200), TGFβ R1 amine-coupled on CM5, multi-cycle, two-state kinetic model
[2] = target: B1; experiment: SPR (Biacore T200), TGFβ R1 amine-coupled on CM5, equilibrium model
human TGFβ receptor 2 [3] = target: T1, human TGFβ receptor 2 (human, UniProt P37173 23-166, limits assumed); experiment: SPR (Biacore T200), TGFβ R2 amine-coupled on CM5, equilibrium model
T1 construct: Immobilised on a CM5 sensor by direct amine coupling; also called TGFβ R2; TGFB-R2
T1 sequence (P37173 23-166 limits assumed): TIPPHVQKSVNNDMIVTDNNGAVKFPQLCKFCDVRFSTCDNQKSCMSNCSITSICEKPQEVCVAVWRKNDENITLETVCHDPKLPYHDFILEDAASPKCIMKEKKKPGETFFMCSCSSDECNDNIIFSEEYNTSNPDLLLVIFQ

human TGFβ receptor 2 [4] = target: T1, human TGFβ receptor 2; experiment: SPR (Biacore T200), TGFβ R2 amine-coupled on CM5, multi-cycle, two-state kinetic model

Row | Binder | Kd [1] | koff [1] | kon [1] | Kd [2] | Kd (human TGFβ receptor 2 [3]) | Kd (human TGFβ receptor 2 [4]) | koff (human TGFβ receptor 2 [4]) | kon (human TGFβ receptor 2 [4])
1 | human TGFβ receptor 1 (receptor, UniProt P36897 34-126, looked up, Immobilised on a CM5 sensor by direct amine coupling; also called TGFβ R1; TGF-bR1) LQCFCHLCTKDNFTCVTDGLCFVSVTETTDKVIHNSMCIAEIDLIPRDRPFVCAPSSKTGSVTTTYCCNQDHCNKIELPTTVKSSPGLGPVEL | 2.31 µM | 0.603 s⁻¹ | 220000 M⁻¹ s⁻¹ | 2.9 µM | – | – | – | –
2 | B1 | – | – | – | – | 5.61 µM | 5.07 µM | 6670 s⁻¹ | 1.08e+09 M⁻¹ s⁻¹
